For one data set, the target named is T1, human IGF-IR (Homo sapiens, UniProt P08069).
T1 construct: The extracellular domain of human IGF-IR (aa 1-932) was cloned into a mammalian expression vector; made in house
Put plainly: Surface plasmon resonance (BIAcore) binding kinetics and affinity on immobilized IGF-IR. On the procedure: The binding kinetics of fibronectin-based scaffold proteins binding proteins to the target was measured using BIAcore 2000 or 3000 biosensors (Pharmacia Biosensor). A capture assay was developed utilizing an IGF-IR-Fc fusion. A similar reagent had been described by Forbes et al. (Forbes et al. 2002, European J. Biochemistry, 269, 961-968). The extracellular domain of human IGF-IR (aa 1-932) was cloned into a mammalian expression vector containing the hinge and constant regions of human IgG1. Transient transfection of the plasmid produced a fusion protein, IGF-IR-Fc which was subsequently purified by Protein A chromatography and captured on Protein A immobilized on Biasensor CM5 chips by amine coupling. The kinetic analysis involved the capture of IGF-IR-Fc on Protein A followed by injection of the fibronectin-based scaffold protein in solution and regeneration of the Protein A surface by glycine pH 2.0. Sensorgrams were obtained at each concentration and were evaluated using a program Biaevaluation, BIA Evaluation 2.0 (BIAcore), to determine the rate constants ka (kon) and kd (koff) The dissociation constant, KD was calculated from the ratio of rate constants koff/kon. Typically, a concentration series (2 uM to 0 uM) of purified fibronectin-based scaffold protein was evaluated for binding to protein A captured human IGF-IR-Fc fusion protein.

Data set [1] relates to human plasmacytoma cell line NCI-H929. The experiment in a line: NCI-H929 cell proliferation assay (serum mediated proliferation). It is filed as cell-based. As to conditions: at all concentrations tested. On the procedure:
The human plasmacytoma cell line NCI-H929 (ATCC, Manassas, Va.) was plated in 96 well plates at a concentration of either 10000 or 25000 cells per well in DMEM (Invitrogen, Carlsbad, Calif.) containing 10% fetal bovine serum (Hyclone, Logan, Utah) containing various concentrations of IGF-IR antagonists. Cells were allowed to proliferate for 72 hours at 37° C., 5% CO2. After the proliferation period, cells were exposed to 20 μL of Cell Titer 96 Aqueous Proliferation Reagent (Promega, Madison, Wis.) and allowed to incubate for an additional four hours. Absorbance at 490 nm was measured on a Spectramax Plus 384 (Molecular Devices, Sunnyvale, Calif.), and the resulting data were analyzed using SigmaPlot (Systat Software, Point Richmond, Calif.).

In a further data set the test system is RH41 sarcoma xenografts. Put plainly: In vivo antitumor activity in RH41 sarcoma xenografts. As to conditions: 40 mg/kg, TIWx3, 20 ip. The procedure: *Tumor growth inhibition and probability values calculated on day 39. ^aVehicle was 80% PEG400, 20% dH2O. ^bVehicle was PBS. ^cAverage weight change for each group is the mean difference between weight at the start of treatment (Day 20) and after the end of treatment (Day 42). TVDT was calculated for a size of 500 mg Abbreviations used are as follows: po, oral route; ip, intraperitoneal route; LCK, gross log cell kill calculated as LCK=T−C/(3.32×TVDT) where T-C is the difference in time in days for the treated tumors (T) to reach a predetermined size (tumor target size) relative to the vehicle control group (C) divided by the tumor volume doubling time (TVDT) multiplied by 3.32.
Tumors were propagated in nude mice. Tumor passages occurred every four weeks for human RH41 xenografts. With regard to efficacy testing human tumor xenografts were implanted in nude mice. All tumor passages were subcutaneous (sc).
Antitumor activity was evaluated in terms of: a) cures, and for the murine tumor models, increases in lifespan reflected by the relative median survival time (MST) of treated (T) versus control (C) groups (i.e. % T/C values); and b) primary tumor growth inhibition determined by calculating the relative median times for T and C mice to grow tumors of a predetermined “target” size (1 gm for all sc tumor models described) and expressed as T-C values, in days. The definition of a cured mouse was one whose tumor was undetectable, or <35 mg, when assessed more than 10 tumor volume doubling times (TVDTs) post-treatment. The activity criterion for tumor inhibition/reduction was a statistically significant delay in primary tumor growth consistent with 1 gross log cell kill (LCK). The following formula was employed to calculate LCK: LCK=T−C/(3.32×TVDT)
Where, TVDT=median time (days) for control tumors to reach target size—median time (days) for control tumors to reach half the target size. […] The maximum tolerated dose (MTD) is defined as the dose level immediately […] which excessive toxicity (i.e. more than one death) occurred. […] Statistical evaluations of data were performed using Gehan's generalized Wilcoxon test (Gehan, Biometrika 52:203-223, 1965). Western Blot Analysis of 385A08-Fc

In data set [2] the test system is human pancreatic adenocarcinoma cell line BxPC-3. The experiment in a line: Cell mitogenesis assay: IGF-I-mediated proliferation, 3H-thymidine. Format: cell-based. Conditions: IGF-I-dependent proliferation, BxPC-3, 24 hour IGF-I exposure. On the procedure:
The purified, optimized IGF-IR clones were evaluated in cell-based assays in order to confirm activity.
The human pancreatic adenocarcinoma cell line BxPC-3 (ATCC, Manassas, Va.) was plated in 96 well plates at a concentration of 2500 cells per well in RPMI 1640 (Invitrogen, Carlsbad, Calif.) containing 10% fetal bovine serum (Hyclone, Logan, Utah). The following day, cells were washed in starvation medium consisting of RPMI 1640 containing 0.1% BSA (Sigma, St. Louis, Mo.). Washed cells were pre-incubated for four hours in starvation medium containing various concentrations of each IGF-IR antagonist. […] For the final four hours of incubation, cells were exposed to [^3H]-Thymidine (0.25 μCi/well; Perkin Elmer, Wellesley, Mass.). After the incubation period, cells were washed in PBS, lysed in 100 μL buffer consisting of 0.1% SDS+0.5 N NaOH, and counted on a TopCount NXT Scintillation Counter (Perkin Elmer, Wellesley, Mass.). The data were analyzed using SigmaPlot (Systat Software, Point Richmond, Calif.).

Data set [3] in a line: Size-exclusion chromatography (solution properties, monomericity). Format: physicochemical. On the procedure:
Size-exclusion chromatography (SEC) was performed using a TSKgel Super SW2000 column (TOSOH Biosciences, LLC), 4.6 mm×30 cm, on an Agilent 1100 HPLC system with UV detection at A214 nm and A280 nm and with fluorescence detection (excitation=280 nm, emission=350 nm). A buffer of 100 mM sodium sulfate, 100 mM sodium phosphate, 150 mM sodium chloride, pH 6.8 at a flow rate of 100 μL/min was employed. Samples (0.1 to 1 μg each) at a concentration of approximately 100 μg/mL were injected separately. Gel filtration standards (Bio-Rad Laboratories, Hercules, Calif.) were used for molecular weight calibration.

The target of another data set is T2, human insulin receptor (Homo sapiens, UniProt P06213).
T2 construct: purchased R&D Systems (Minneapolis, Minn.)
The experiment in a line: BIAcore binding to immobilized human insulin receptor. As to conditions: percentage of signal for insulin binding at similar concentration. The procedure:
One liter E. coli growths of selected optimized clones were prepared and the proteins were purified.
In brief, 60 ug/mL of IR diluted in acetate 4.5 was coupled/immobilized to a level of 8300 RU and 11.9 ug/mL of VEGF-R2-Fc diluted in acetate 5.0 was immobilized to a level of 9700 RU on flow cells 2 and 3. A blank reference surface was prepared on FC1. […] Fibronectin-based scaffold proteins were diluted to 10 uM in HBS-EP (10 mM Hepes 150 mM NaCl 3 mM EDTA 0.05% Surfactant P20) and injected at 20 uL/min for 3 minutes over the flow cells at 25 C and dissociation was observed over 10 mins.

Data set [4] is described as follows: Differential scanning calorimetry (thermal stability, Tm). It is filed as physicochemical. As to conditions: DSC (FIG. 8). On the procedure: Differential Scanning calorimetry (DSC) analysis of midscaled clones was performed to determine thermal stability. A 1 mg/ml solution of appropriate clone was scanned in a N-DSC II calorimeter (calorimetry Sciences Corp) by ramping the temperature from 5° C. to 95° C. at a rate of 1 degree per minute under 3 atm pressure. The data was analyzed vs. a control run of the appropriate buffer using a best fit using Orgin Software (OrginLab Corp).

Setting [5] is: Table 4, optimized 218C04 clones.

B1: 385A08-PEG20-385A08: two 385A08 (SEQ ID NO: 203) domains coupled via Cys97 to a linear 20 kDa bifunctional PEG (conjugate)
chain 1: GVSDVPRDLEVVAATPTSLLISWSARLKVARYYRITYGETGGNSPVQEFTVPKNVYTATISGLKPGVDYTITVYAVTRFRDYQPISINYRTEIDKPCQ
chain 2: B1 chain 1
modifications: 20 kDa bifunctional PEG via Cys97
Regarding B1, in the data set with human IGF-IR, the “faster on-rate (ka) relative to unmodified 385A08” value is listed as “approximately two-fold” and the “off-rate (kd) relative to unmodified 385A08” value is recorded as “slightly decreased”. Further, in the data set with human IGF-IR (Table 10, PEGylated variants), the ka is on record as 15 1/M*s × 10^+6 and the kd is recorded as 0.9 1/s × 10^−4. The “inhibition of cell growth” value in data set [1] is given as “approximately 100%”. Further, in the data set on RH41 sarcoma xenografts, the “Outcome by (% TGI)” value is “A (A % TGI value of >50% was considered active)”. In addition, the “% TGI” value with RH41 sarcoma xenografts (calculated on day 39) is given as 66%. The molecule further came in with an LCK in the data set on RH41 sarcoma xenografts (gross log cell kill) of 0.6.

B2: 338A06 (protein)
chain: VSDVPRDLEVVAATPTSLLISWSARLKVARYYRITYGETGGNSPVQEFTVPKNVYTATISGLKPGVDYTITVYAVTKMRDYRPISINYRT
B2: in the data set with human IGF-IR (setting [5]), the dissociation constant Kd was 0.069 nM, the ka is reported as 2.2 1/M*s × 10^+6 and the kd is reported as 4.3 1/s × 10^−4. In data set [2], this molecule displayed an IC50 of 10 to 20 nM. Also, in data set [3], the “solution behaviour by SEC (monomer / aggregation)” value is “monomeric behavior”. Moreover, in the data set with human insulin receptor (Table 5), the “% IR Binding at 10 μM” value is recorded as 2%. Moreover, the “% IR Binding at 10 μM” value with human insulin receptor (Table 8) is on record as 0%. For the same molecule, in data set [4], the “unfolding temperature (Tm)” value turned out to be 62 °C.

Values taken from US11149077B2, “Targeted therapeutics based on engineered proteins for tyrosine kinases receptors, including IGF-IR” (BRISTOL-MYERS SQUIBB COMPANY, priority 2006, dated 2021).
